This note sets out measurements from paper PMC7474679 (Proceedings of the National Academy of Sciences of the …, 2020).

No end group written: not given here. *: point of attachment. FITC = O=C1OC2(c3ccc(O)cc3Oc3cc(O)ccc32)c2ccc(NC(=S)*)cc21

One may read the Kd as the constant that tells how readily two partners part at equilibrium. The low end stands for a tighter complex, the high end for a looser complex.

The chains are these.
T1: Full-length S. cerevisiae Pex5 (S. cerevisiae, UniProt P35056 1-612)
T1 sequence: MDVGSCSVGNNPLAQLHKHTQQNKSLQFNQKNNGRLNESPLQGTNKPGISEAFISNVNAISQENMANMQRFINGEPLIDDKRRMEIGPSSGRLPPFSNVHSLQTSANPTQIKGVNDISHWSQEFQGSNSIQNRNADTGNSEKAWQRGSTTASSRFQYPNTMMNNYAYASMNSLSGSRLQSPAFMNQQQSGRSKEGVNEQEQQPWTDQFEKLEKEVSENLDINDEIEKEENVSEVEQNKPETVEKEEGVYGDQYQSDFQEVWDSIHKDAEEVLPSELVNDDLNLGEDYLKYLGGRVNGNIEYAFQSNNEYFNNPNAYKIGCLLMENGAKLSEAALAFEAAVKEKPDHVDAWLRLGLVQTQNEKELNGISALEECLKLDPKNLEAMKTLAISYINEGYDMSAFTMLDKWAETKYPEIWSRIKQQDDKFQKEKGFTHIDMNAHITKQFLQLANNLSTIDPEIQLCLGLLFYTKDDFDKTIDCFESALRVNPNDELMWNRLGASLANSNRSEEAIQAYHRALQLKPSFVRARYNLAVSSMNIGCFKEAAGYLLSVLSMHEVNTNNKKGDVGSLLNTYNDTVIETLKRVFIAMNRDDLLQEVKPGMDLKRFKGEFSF

B1: Lys1 peptide (FITC-YARVKRSSRL) (peptide)
peptide: {FITC}-YARVKRSSRL
B2: Cat2 peptide (FITC-YNENKRKAKL) (peptide)
peptide: {FITC}-YNENKRKAKL
B3: Pcs60 peptide (FITC-YKSSRNKSKL) (peptide)
peptide: {FITC}-YKSSRNKSKL
B4: mCherry-SKL peptide (FITC-GMDELYKSKL) (peptide)
peptide: {FITC}-GMDELYKSKL

This experiment concerns the target T1, Full-length S. cerevisiae Pex5. Briefly: fluorescence polarisation. On the technique in general: Fluorescence polarisation rises when a labelled molecule tumbles more slowly, as on binding a larger partner.
Molecule B1 returned a Kd of 29.3 ± 3.65 nM. The result for B2 reads 49.9 ± 4.1 nM.

Turning to B3, the equilibrium dissociation constant (Kd) was 455 ± 43.8 nM. As for B4, the Kd turned out to be 9840 nM.
